Tests used:
[1] = target: T1, recombinant human tumor necrosis factor alpha (human, UniProt P01375 77-233); test: BLI
[2] = target: T1, recombinant human tumor necrosis factor …; test: BLI; remark: listed apart in the source

T1 sequence (P01375 77-233): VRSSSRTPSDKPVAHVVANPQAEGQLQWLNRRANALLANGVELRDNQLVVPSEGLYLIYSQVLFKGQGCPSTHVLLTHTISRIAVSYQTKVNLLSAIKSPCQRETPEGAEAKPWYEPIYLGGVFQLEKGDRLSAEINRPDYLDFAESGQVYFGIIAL

B1: Haidalimumab (antibody, V domains shown)
VH: EVQLVESGGGLVQPGGSLRLSCAASGFPFSNHWMNWVRQAPGKGLEWVGEIRSKSMNSATHYAESVKGRFTISRDDSKNSLYLQMNSLKTEDTAVYYCARNYYGSTYDHWGQGTLVTVSS
VL: EIVLTQSPDFQSVTPKEKVTITCRASQFVGYSIHWYQQKPDQSPKLLIKYASESRSGVPSRFSGSGSGTDFTLTINSLEAEDAATYYCQQSHSWHFTFGQGTKLEIK
B1 gave a koff [1] of 0.00023 s⁻¹ and a Kd [2] of 0.774 nM.

— PMC8809985 (2021)
